Assay results as given in PMC10786891, “Massively parallel profiling of RNA-targeting CRISPR-Cas13d”.

T1: EsCas13d, nuclease-dead (Eubacterium siraeum, UniProt B0MS50, R295A;H300A;R849A;H854A)
T1 sequence: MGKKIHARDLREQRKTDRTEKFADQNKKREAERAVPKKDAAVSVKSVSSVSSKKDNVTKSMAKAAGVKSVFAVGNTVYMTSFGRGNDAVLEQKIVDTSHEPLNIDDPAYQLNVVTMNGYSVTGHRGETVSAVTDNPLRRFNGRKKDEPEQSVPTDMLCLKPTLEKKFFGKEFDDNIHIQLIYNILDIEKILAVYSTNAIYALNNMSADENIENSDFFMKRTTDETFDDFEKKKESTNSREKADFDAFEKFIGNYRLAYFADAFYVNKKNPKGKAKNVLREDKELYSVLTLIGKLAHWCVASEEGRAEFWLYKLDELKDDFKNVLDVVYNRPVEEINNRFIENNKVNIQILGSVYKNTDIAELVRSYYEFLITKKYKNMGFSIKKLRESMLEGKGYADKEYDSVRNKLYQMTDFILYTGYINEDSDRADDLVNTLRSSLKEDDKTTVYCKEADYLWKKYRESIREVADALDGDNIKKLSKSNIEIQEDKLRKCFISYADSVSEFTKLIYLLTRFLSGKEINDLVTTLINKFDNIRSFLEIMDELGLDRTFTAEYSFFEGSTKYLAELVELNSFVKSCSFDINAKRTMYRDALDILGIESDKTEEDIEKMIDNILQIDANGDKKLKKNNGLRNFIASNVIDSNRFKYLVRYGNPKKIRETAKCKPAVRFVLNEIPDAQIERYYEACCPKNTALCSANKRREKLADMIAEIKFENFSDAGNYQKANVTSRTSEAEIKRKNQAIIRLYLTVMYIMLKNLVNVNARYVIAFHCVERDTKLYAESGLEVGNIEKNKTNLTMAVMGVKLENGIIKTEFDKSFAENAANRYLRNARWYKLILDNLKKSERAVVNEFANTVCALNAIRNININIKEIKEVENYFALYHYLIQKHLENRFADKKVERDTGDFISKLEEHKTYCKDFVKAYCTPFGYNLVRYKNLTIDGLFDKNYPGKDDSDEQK


Biological target: T1, EsCas13d, nuclease-dead
Assay: crRNA (strand 1, pre-loaded); Mg2+; 40 mM Tris-HCl pH 7.5, 150 mM NaCl, 6 mM MgCl2, 1 mM DTT, 0.1% Tween-20, 0.2 mg/ml BSA; 25 C; 10 min per concentration, then washed
Settings: tags: His6-TwinStrep-SUMO cleaved; N-terminal SNAP kept (SNAP-Surface 488); label: 3' end held by stalled T7 RNA polymerase

| Binder | Kd [nM] |
| --- | --- |
| target 1 U8A,U11A (mixed) RNA 1: CACCCGUGCAAAAAUGCAGGGGUCUAAAACUGAGCGGAUAACCUCUCUAUGG RNA 2: GGGAAUGGAUCCACAUCUACGAAUUCGUACCAUAGAGAGGAUAACCGCUCACCGAGAUCGGAAGAGCACACGU | 26.8 ± 1.9 |
| target 1 insA 3' of 11,insG 3' of 1 (mixed) RNA 1: CACCCGUGCAAAAAUGCAGGGGUCUAAAACUGAGCGGAUAACCUCUCUAUGG RNA 2: GGGAAUGGAUCCACAUCUACGAAUUCGUACCAUAGAGAGGUAUAUCCGCUCAGCCGAGAUCGGAAGAGCACACGU | 20.8 ± 1 |
| target 1 G13C,A14U (mixed) RNA 1: CACCCGUGCAAAAAUGCAGGGGUCUAAAACUGAGCGGAUAACCUCUCUAUGG RNA 2: GGGAAUGGAUCCACAUCUACGAAUUCGUACCAUAGAGUCGUUAUCCGCUCACCGAGAUCGGAAGAGCACACGU | 13.1 ± 1.1 |
| target 1 A20C,C21A (mixed) RNA 1: CACCCGUGCAAAAAUGCAGGGGUCUAAAACUGAGCGGAUAACCUCUCUAUGG RNA 2: GGGAAUGGAUCCACAUCUACGAAUUCGUACACUAGAGAGGUUAUCCGCUCACCGAGAUCGGAAGAGCACACGU | 5.63 ± 0.34 |
| target 1 A20C (mixed) RNA 1: CACCCGUGCAAAAAUGCAGGGGUCUAAAACUGAGCGGAUAACCUCUCUAUGG RNA 2: GGGAAUGGAUCCACAUCUACGAAUUCGUACCCUAGAGAGGUUAUCCGCUCACCGAGAUCGGAAGAGCACACGU | 34.2 ± 2.5 |
| target 1 insG 3' of 18,insA 3' of 12 (mixed) RNA 1: CACCCGUGCAAAAAUGCAGGGGUCUAAAACUGAGCGGAUAACCUCUCUAUGG RNA 2: GGGAAUGGAUCCACAUCUACGAAUUCGUACCAUAGGAGAGGAUUAUCCGCUCACCGAGAUCGGAAGAGCACACGU | 73 ± 32 |
| target 1 G17U,A20C (mixed) RNA 1: CACCCGUGCAAAAAUGCAGGGGUCUAAAACUGAGCGGAUAACCUCUCUAUGG RNA 2: GGGAAUGGAUCCACAUCUACGAAUUCGUACCCUAUAGAGGUUAUCCGCUCACCGAGAUCGGAAGAGCACACGU | 88 ± 21 |
| target 1 U3A,G5C (mixed) RNA 1: CACCCGUGCAAAAAUGCAGGGGUCUAAAACUGAGCGGAUAACCUCUCUAUGG RNA 2: GGGAAUGGAUCCACAUCUACGAAUUCGUACCAUAGAGAGGUUAUCCCCACACCGAGAUCGGAAGAGCACACGU | 16.9 ± 0.9 |
| target 1 insC 3' of 10,insC 3' of 8 (mixed) RNA 1: CACCCGUGCAAAAAUGCAGGGGUCUAAAACUGAGCGGAUAACCUCUCUAUGG RNA 2: GGGAAUGGAUCCACAUCUACGAAUUCGUACCAUAGAGAGGUUCAUCCCGCUCACCGAGAUCGGAAGAGCACACGU | 63 ± 13 |
| target 1 insA 3' of 12,insU 3' of 12 (mixed) RNA 1: CACCCGUGCAAAAAUGCAGGGGUCUAAAACUGAGCGGAUAACCUCUCUAUGG RNA 2: GGGAAUGGAUCCACAUCUACGAAUUCGUACCAUAGAGAGGAUUUAUCCGCUCACCGAGAUCGGAAGAGCACACGU | 58 ± 16 |
| target 1 insA 3' of 11,insU 3' of 1 (mixed) RNA 1: CACCCGUGCAAAAAUGCAGGGGUCUAAAACUGAGCGGAUAACCUCUCUAUGG RNA 2: GGGAAUGGAUCCACAUCUACGAAUUCGUACCAUAGAGAGGUAUAUCCGCUCAUCCGAGAUCGGAAGAGCACACGU | 19 ± 1.3 |
| target 1 G13A,A20U (mixed) RNA 1: CACCCGUGCAAAAAUGCAGGGGUCUAAAACUGAGCGGAUAACCUCUCUAUGG RNA 2: GGGAAUGGAUCCACAUCUACGAAUUCGUACCUUAGAGAAGUUAUCCGCUCACCGAGAUCGGAAGAGCACACGU | 14.5 ± 2.2 |
| target 1 C6G,G17A (mixed) RNA 1: CACCCGUGCAAAAAUGCAGGGGUCUAAAACUGAGCGGAUAACCUCUCUAUGG RNA 2: GGGAAUGGAUCCACAUCUACGAAUUCGUACCAUAAAGAGGUUAUCGGCUCACCGAGAUCGGAAGAGCACACGU | 48 ± 6 |
| target 1 U11A,G13U (mixed) RNA 1: CACCCGUGCAAAAAUGCAGGGGUCUAAAACUGAGCGGAUAACCUCUCUAUGG RNA 2: GGGAAUGGAUCCACAUCUACGAAUUCGUACCAUAGAGAUGAUAUCCGCUCACCGAGAUCGGAAGAGCACACGU | 34.2 ± 2.2 |
| target 1 G5U,U11C (mixed) RNA 1: CACCCGUGCAAAAAUGCAGGGGUCUAAAACUGAGCGGAUAACCUCUCUAUGG RNA 2: GGGAAUGGAUCCACAUCUACGAAUUCGUACCAUAGAGAGGCUAUCCUCUCACCGAGAUCGGAAGAGCACACGU | 61 ± 8 |
| target 1 insA 3' of 15,insG 3' of 3 (mixed) RNA 1: CACCCGUGCAAAAAUGCAGGGGUCUAAAACUGAGCGGAUAACCUCUCUAUGG RNA 2: GGGAAUGGAUCCACAUCUACGAAUUCGUACCAUAGAGAAGGUUAUCCGCUGCACCGAGAUCGGAAGAGCACACGU | 5.1 ± 0.4 |
| target 1 complement block 1-9 (mixed) RNA 1: CACCCGUGCAAAAAUGCAGGGGUCUAAAACUGAGCGGAUAACCUCUCUAUGG RNA 2: GGGAAUGGAUCCACAUCUACGAAUUCGUACCAUAGAGAGGUUUAGGCGAGUCCGAGAUCGGAAGAGCACACGU | 9.5 ± 0.7 |
| target 1 insA 3' of 22,insC 3' of 22 (mixed) RNA 1: CACCCGUGCAAAAAUGCAGGGGUCUAAAACUGAGCGGAUAACCUCUCUAUGG RNA 2: GGGAAUGGAUCCACAUCUACGAAUUCGUACACCAUAGAGAGGUUAUCCGCUCACCGAGAUCGGAAGAGCACACGU | 8.92 ± 0.33 |
| target 1 insC 3' of 8,insG 3' of 6 (mixed) RNA 1: CACCCGUGCAAAAAUGCAGGGGUCUAAAACUGAGCGGAUAACCUCUCUAUGG RNA 2: GGGAAUGGAUCCACAUCUACGAAUUCGUACCAUAGAGAGGUUAUCCCGGCUCACCGAGAUCGGAAGAGCACACGU | 17.1 ± 1.3 |
| target 1 insA 3' of 11,insC 3' of 1 (mixed) RNA 1: CACCCGUGCAAAAAUGCAGGGGUCUAAAACUGAGCGGAUAACCUCUCUAUGG RNA 2: GGGAAUGGAUCCACAUCUACGAAUUCGUACCAUAGAGAGGUAUAUCCGCUCACCCGAGAUCGGAAGAGCACACGU | 15.8 ± 1.1 |
| target 1 insU 3' of 17,insU 3' of 7 (mixed) RNA 1: CACCCGUGCAAAAAUGCAGGGGUCUAAAACUGAGCGGAUAACCUCUCUAUGG RNA 2: GGGAAUGGAUCCACAUCUACGAAUUCGUACCAUAGUAGAGGUUAUCUCGCUCACCGAGAUCGGAAGAGCACACGU | 25.4 ± 1 |
| target 1 insC 3' of 13,insC 3' of 5 (mixed) RNA 1: CACCCGUGCAAAAAUGCAGGGGUCUAAAACUGAGCGGAUAACCUCUCUAUGG RNA 2: GGGAAUGGAUCCACAUCUACGAAUUCGUACCAUAGAGAGCGUUAUCCGCCUCACCGAGAUCGGAAGAGCACACGU | 16.9 ± 1.2 |
| target 1 A1U,C2A (mixed) RNA 1: CACCCGUGCAAAAAUGCAGGGGUCUAAAACUGAGCGGAUAACCUCUCUAUGG RNA 2: GGGAAUGGAUCCACAUCUACGAAUUCGUACCAUAGAGAGGUUAUCCGCUAUCCGAGAUCGGAAGAGCACACGU | 8.4 ± 0.7 |
| target 1 insC 3' of 14,insG 3' of 4 (mixed) RNA 1: CACCCGUGCAAAAAUGCAGGGGUCUAAAACUGAGCGGAUAACCUCUCUAUGG RNA 2: GGGAAUGGAUCCACAUCUACGAAUUCGUACCAUAGAGACGGUUAUCCGCGUCACCGAGAUCGGAAGAGCACACGU | 21 ± 1.2 |
